The values that follow come from US6808893.

Test [1] concerns the target EAAT4, full-length glutamate transporter (rat) (UniProt O35921). The test is described as follows: cell-based or functional assay.
For test [2], the target named is GTRAP4-48 (glutamate transporter 4 associated protein), full-length (rat) (UniProt Q9ES67). The test is described as follows: cell-based or functional assay.
Chain of GTRAP4-48 (glutamate transporter 4 associated protein), full-length (rat) (Q9ES67 whole entry): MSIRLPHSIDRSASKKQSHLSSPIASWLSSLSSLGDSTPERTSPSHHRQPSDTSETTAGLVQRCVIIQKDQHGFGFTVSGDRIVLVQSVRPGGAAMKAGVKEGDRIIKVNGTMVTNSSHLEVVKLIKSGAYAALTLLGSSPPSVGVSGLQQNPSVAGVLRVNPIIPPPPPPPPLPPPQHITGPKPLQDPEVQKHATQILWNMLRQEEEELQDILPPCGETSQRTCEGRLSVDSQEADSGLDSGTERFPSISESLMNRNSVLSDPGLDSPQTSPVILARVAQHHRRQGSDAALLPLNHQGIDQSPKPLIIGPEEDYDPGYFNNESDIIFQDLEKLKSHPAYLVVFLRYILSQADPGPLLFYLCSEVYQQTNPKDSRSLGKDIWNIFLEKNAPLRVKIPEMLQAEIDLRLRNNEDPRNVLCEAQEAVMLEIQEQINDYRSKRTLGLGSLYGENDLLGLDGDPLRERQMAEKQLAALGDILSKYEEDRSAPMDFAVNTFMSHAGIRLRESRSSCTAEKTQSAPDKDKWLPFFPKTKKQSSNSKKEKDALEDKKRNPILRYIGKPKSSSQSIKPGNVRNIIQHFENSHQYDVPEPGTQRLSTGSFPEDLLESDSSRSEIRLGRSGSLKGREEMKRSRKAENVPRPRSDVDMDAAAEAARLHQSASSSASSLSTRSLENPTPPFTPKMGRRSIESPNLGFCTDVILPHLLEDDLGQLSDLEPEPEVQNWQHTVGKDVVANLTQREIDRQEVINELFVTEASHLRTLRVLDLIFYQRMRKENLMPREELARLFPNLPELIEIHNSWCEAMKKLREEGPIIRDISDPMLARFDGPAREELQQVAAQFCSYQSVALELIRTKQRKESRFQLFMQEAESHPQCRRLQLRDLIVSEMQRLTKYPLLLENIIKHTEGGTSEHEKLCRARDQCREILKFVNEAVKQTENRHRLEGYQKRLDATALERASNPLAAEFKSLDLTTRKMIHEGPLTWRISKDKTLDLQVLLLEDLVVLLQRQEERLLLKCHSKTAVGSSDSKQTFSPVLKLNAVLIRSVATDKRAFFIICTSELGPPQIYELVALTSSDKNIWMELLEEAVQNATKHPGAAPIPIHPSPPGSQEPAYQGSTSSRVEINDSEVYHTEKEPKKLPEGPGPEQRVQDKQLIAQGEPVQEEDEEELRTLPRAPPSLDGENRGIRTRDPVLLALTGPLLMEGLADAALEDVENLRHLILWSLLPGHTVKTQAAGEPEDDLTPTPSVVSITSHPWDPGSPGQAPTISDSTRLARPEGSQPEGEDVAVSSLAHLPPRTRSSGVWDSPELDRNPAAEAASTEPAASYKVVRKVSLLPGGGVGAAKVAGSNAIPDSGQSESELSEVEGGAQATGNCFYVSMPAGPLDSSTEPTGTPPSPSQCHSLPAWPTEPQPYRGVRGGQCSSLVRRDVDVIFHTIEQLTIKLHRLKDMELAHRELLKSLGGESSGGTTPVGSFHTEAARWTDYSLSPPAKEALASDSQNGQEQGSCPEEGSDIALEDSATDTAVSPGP

Chain of EAAT4, full-length glutamate transporter (rat) (O35921 whole entry): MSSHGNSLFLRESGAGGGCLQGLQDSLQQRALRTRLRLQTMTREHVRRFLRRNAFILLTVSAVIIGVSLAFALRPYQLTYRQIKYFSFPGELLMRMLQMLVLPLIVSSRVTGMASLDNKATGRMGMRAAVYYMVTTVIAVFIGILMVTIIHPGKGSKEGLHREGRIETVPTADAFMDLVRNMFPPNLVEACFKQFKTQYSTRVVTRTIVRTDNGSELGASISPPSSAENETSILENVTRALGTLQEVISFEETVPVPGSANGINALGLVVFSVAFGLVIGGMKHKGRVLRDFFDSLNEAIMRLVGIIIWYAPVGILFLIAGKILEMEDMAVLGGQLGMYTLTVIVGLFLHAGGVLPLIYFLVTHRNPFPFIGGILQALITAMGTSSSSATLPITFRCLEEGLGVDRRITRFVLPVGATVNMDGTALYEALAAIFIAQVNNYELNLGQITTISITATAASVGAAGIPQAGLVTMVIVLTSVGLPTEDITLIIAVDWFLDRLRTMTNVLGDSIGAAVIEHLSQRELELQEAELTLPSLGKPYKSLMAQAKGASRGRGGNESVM

For “GTRAP4-41 (glutamate transporter 4 associated protein), full-length, Q9QWN8 2-2388”, in test [1], the Km of Na+-dependent L-[3H]-glutamate uptake with GTRAP41 was 11 µM, the Na+-dependent glutamate transport in HEK-rEAAT4 cells was 2 fold and the Vmax of Na+-dependent L-[3H]-glutamate uptake with GTRAP41 was found to be 605 pmol/mg/min.
Regarding “myc-tagged construct encoding the last 77 amino acids of EAAT4 (from UniProt O35921 485-561)”, the GTRAP4-48 mediated increase of EAAT4 uptake activity in HEK-rEAAT4 cells in test [2] is 25%.
